Laboratory results taken from patent US20230312724A1 (KADMON, published 2023).
Positions count from the first letter of the chain named.

T1: mouse B7-H4-his (mouse, UniProt Q7TSP5 25-257)
T1 construct: also called mB7-H4-his; mB7-H4-His; not shown: his tag
T1 sequence: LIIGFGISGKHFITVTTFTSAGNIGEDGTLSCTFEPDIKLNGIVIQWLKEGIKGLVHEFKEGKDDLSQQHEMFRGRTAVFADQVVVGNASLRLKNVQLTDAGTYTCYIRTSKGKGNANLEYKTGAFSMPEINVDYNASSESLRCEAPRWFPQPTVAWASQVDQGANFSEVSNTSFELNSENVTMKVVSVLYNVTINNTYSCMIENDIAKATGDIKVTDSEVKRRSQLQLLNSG

T2: human B7-H4-his (human, UniProt Q7Z7D3 25-259)
T2 construct: also called hB7-H4-his; hB7-H4 his; not shown: his tag
T2 sequence: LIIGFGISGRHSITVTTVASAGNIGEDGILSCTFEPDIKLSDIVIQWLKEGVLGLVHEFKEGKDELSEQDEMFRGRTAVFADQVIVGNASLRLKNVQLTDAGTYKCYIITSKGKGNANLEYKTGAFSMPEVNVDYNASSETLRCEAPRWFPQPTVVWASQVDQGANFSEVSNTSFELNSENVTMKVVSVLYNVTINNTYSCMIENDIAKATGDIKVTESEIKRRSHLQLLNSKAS

T3: hB7-H4 (soluble human B7-H4, construct not named) (human, UniProt Q7Z7D3 25-259, limits assumed)
T3 construct: also called soluble hB7-H4
T3 sequence: T2 sequence

T4: mB7-H4 (soluble mouse B7-H4, construct not named) (mouse, UniProt Q7TSP5 25-257, limits assumed)
T4 sequence: T1 sequence

T5: mouse B7-H4 expressed on cells (mouse, UniProt Q7TSP5 25-257)
T5 construct: also called cellular mB7-H4; mB7-H4/CT26
T5 sequence: T1 sequence

T6: human B7-H4 expressed on cells (human, UniProt Q7Z7D3 25-282)
T6 construct: Transfected CHO cells or tumor cell lines that carry hB7-H4; also called cellular hB7-H4
T6 sequence: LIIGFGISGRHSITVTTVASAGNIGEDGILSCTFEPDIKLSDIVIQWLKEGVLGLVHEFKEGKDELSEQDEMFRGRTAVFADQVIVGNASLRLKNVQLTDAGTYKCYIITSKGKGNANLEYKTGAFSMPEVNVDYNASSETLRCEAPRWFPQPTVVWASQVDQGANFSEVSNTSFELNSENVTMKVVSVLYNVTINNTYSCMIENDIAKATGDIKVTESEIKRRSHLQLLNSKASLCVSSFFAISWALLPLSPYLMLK

B1: 5E4/5E4 (antibody, human IgG1, V domains shown)
VH: QVQLVQSGAEVKKPGASVKVSCKASGYTFTSYDINWVRQAPGQGLEWMGWMNPNSGNTGYAQKFQGRVTMTRDTSTSTVYMELSSLRSEDTAVYYCARGELWFGEFDYYYYYGMDVWGQGTTVTVSS
VL: DIQMTQSPSSLSASVGDRVTITCRASQSISSYLNWYQQKPGKAPKLLIYGASSLQSGVPSRFSGSGSGTDFTLTISSLQPEDFATYYCQQADRIPFTFGRGTKVEIK
B2: 5G6/5G6 (antibody, human IgG1, V domains shown)
VH: QVQLVQSGAEVKKPGASVKVSCKASGYTFTSYYMHWVRQAPGQGLEWLGWVNPNTGTTRFAQKFQGRVTMTRDTSTSTVYMELSSLRSEDTAVYYCARDANYYYGMDVWGQGTMVTVSS
VL: DIVMTQSPDSLAVSLGERATINCKSSQSVLYSSNNKNYLAWYQQKPGQPPKLLIYWASTRESGVPDRFSGSGSGTDFTLTISSLQAEDVATYYCQKYNSALPITFGQGTRLEIK
B3: 24B6/24B6 (antibody, human IgG1, V domains shown)
VH: QVQLVQSGAEVKKPGASVKVSCKASGYTFTGYYMHWVRQAPGQGLEWIGWMNPNSGDTGYAQKFQGRVTMTRDTSTSTVYMELSSLRSEDTAVYYCAKVGAYGGMDVWGQGTTVTVSS
VL: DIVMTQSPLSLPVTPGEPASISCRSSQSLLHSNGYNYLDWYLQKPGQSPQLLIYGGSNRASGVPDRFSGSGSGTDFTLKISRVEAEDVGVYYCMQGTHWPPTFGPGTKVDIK
B4: 30G4/30G4 (antibody, human IgG1, V domains shown)
VH: B3 VH with T30S, G31S, I48M, K98R, G100P, A101E, Y102T
VL: DIVMTQSPLSLPVTPGEPASISCRSSQSLLHSNGYNYLDWYLQKPGQSPQLLIYGASSLHSGVPDRFSGSGSGTDFTLKISRVEAEDVGVYYCMQGTHWPPTFGQGTKVEIK
B5: 9D11/9D11 (antibody, human IgG1, V domains shown)
VH: QVQLVQSGAEVKKPGASVKVSCKASGYTFTSYGISWVRQAPGQGLEWVGVINPNGGTTTYAQTFQGRVTMTRDTSTSTVYMELSSLRSEDTAVYYCARTGYSSGWAFDYWGRGTLVTVSS
VL: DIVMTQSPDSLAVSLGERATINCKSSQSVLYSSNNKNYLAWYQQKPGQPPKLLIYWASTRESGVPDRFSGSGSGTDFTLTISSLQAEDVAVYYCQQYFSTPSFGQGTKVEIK
B6: 9D11/67G3 (antibody, human IgG1, V domains shown)
VH: B5 VH
VL: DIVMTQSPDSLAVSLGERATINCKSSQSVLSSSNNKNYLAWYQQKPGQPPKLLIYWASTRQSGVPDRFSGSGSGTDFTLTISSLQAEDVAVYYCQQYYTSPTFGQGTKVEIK
notes: 9D11 VH with 67G3 VL
B7: 9D11/67H9 (antibody, human IgG1, V domains shown)
VH: B5 VH
VL: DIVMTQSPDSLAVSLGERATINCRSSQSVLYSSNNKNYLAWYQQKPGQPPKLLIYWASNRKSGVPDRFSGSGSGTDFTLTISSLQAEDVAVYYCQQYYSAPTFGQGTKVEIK
notes: 9D11 VH with 67H9 VL
B8: 9D11/67C6 (antibody, human IgG1, V domains shown)
VH: B5 VH
VL: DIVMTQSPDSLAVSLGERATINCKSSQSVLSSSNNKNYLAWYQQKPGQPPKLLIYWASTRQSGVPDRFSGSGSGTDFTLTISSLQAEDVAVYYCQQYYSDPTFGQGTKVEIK
notes: 9D11 VH with 67C6 VL
B9: 24F4/24F4 (antibody, human IgG1, V domains shown)
VH: QVQLVQSGAEVKKPGSSVKVSCKASGYRFTGDYIHWVRQAPGQGLEWMGWMNPNSGNTGLAQKFQGRVTITADESTSTAYMELSSLRSEDTAVYYCARVLGFSGGMDVWGQGTTVTVSS
VL: B4 VL with G55A, H60R, V109L
B10: 5F4/5F4 (antibody, human IgG1, V domains shown)
VH: EVQLLESGGGLVKPGGSLRLSCAASGFTFSSYAMHWVRQAPGKGLEWVSAIGGSGRTTYYADSVKGRFTISRDDSKNTLYLQMNSLKTEDTAVYYCARERGYSYGQIDYWGQGTLVTVSS
VL: B4 VL with G55A, H60Q, T97A, P101L
B11: 9E1/9E1 (antibody, V domains shown)
VH: QVQLVQSGAEVKKPGASVKVSCKASGYTFTGYYLHWVRQAPGQGLEWMGWINPNSGGTNSAQRFQGRVTMTRDTSTSTVYMELSSLRSEDTAVYYCARVRGYEGGMDVWGQGTTVTVSS
VL: not shown
B12: 15B11/15B11 (antibody, V domains shown)
VH: QVQLVQSGAEVKKPGASVKVSCKASGYTFTGYYIHWVRQAPGQGLEWMGWMNPHSGHTGYAQNLQGRVTMTRDTSTSTVYMELSSLRSEDTAVYYCARVKVTTGFDYWGQGTLVTVSS
VL: not shown

Tests used:
[1] = target: T7, IgV domain of mouse B7-H4-Fc (mouse; human); assay: ELISA, coated mB7-H4 IgV domain
T7 construct: also called mB7-H4 IgV domain
Experimental: (§1) About 1-2 μg/ml of human or mouse B7-H4-Fc (or his-tagged) was immobilized on ELISA plates (Immuno 2HB, Thermo scientific, cat #3455) at 4° C. overnight. After blocking the plates with 3% PBS+milk, serial diluted antibodies were added to the blocked plates and incubated at RT for 1-1.5 h. After washing the plates with PBS-T (0.05%), horse radish peroxidase (HRP)-conjugated antibody targeting the hFab was added to the plate. Signals were developed by adding 3,3′,5,5′-Tetramethylbenzidine (TMB (followed 1N of H₂SO₄ to stop the reaction. The OD at 450 nm was read by ELISA plate reader (Infinite M1000 from TECAN). GraphPad from Prism was used to plot OD450 vs. antibody concentration curve and to calculate the EC50 values.

mouse B7-H4-his = target: T1, mouse B7-H4-his; assay: SPR (Biacore)
mouse B7-H4-Fc [2] = target: T8, mouse B7-H4-Fc (mouse; human); assay: SPR (Biacore)
T8 construct: also called mB7-H4-Fc; mB7-H4-hFc

[3] = target: T9, IgV domain of human B7-H4-Fc (human); assay: ELISA, coated hB7-H4 IgV domain
T9 construct: also called hB7-H4 IgV domain
Experimental: as §1

human B7-H4-Fc [4] = target: T10, human B7-H4-Fc (human); assay: ELISA, coated hB7-H4-Fc
T10 construct: also called hB7-H4-Fc; hB7-H4 Fc
Experimental: as §1

human B7-H4-Fc [5] = target: T10, human B7-H4-Fc; assay: SPR (Biacore)
Experimental: (§2) Surface plasmon resonance experiments were performed using a Biacore T200 instrument equipped with CM5 sensor chips. The system was equilibrated in running buffer HBS-EP pH 7.4. The ligands were immobilized using amine-coupling chemistry. The surfaces of flow cells one through four were activated for 5 min using an amine coupling kit at a flow rate of […]. The ligands (human B7-H4-Fc, human B7-H4-hism and mouse B7-H4-Fc; at a concentration of 5 μg/ml in 10 mM sodium acetate, pH 5.0) were immobilized at a density of 50-100 RU on flow cell 2, 3, 4 respectively. Flow cell 1 was left blank to serve as a reference surface. All flow cell surfaces were blocked with a 5 min injection of 1 M ethanolamine, pH 8.0. To collect kinetic binding data, the respective analyte (diluted in 1×HBS-EP buffer, pH 7.4) was injected over the four flow cells at concentrations of 100 nM to 0.1 nM at a flow rate of […] and at a temperature of 25° C. The protein complex was allowed to associate and dissociate for 180 seconds and 1000 or 1200 seconds, respectively. The surfaces were regenerated with a 30 second injection of 1.5 M NaCl/0.05 M NaOH. The data were fit to a simple 1:1 interaction model using the Langmuir fit option available within the Biaevaluaton software
(§3) The kinetics for binding of the different antibodies to their targets were examined using Biacore analysis.

human B7-H4-his = target: T2, human B7-H4-his; assay: SPR (Biacore)
Experimental: as §2, §3

mouse B7-H4-Fc [6] = target: T8, mouse B7-H4-Fc; assay: ELISA, coated mB7-H4-Fc
Experimental: as §1

[7] = target: T3, hB7-H4 (soluble human B7-H4, construct …); assay: ELISA, hB7-H4
Experimental: as §1

[8] = target: T4, mB7-H4 (soluble mouse B7-H4, construct …); assay: ELISA, mB7-H4
Experimental: as §1

[9] = target: T5, mouse B7-H4 expressed on cells; assay: flow cytometry, mB7-H4/CT26 cells
Experimental: (§4) Cells were harvested, washed once, and then re-suspended to the concentration of 1×10⁶ cells/ml in ice cold FACS Buffer. 25 μl of cell suspension was added to each well of a 96-well round-bottom microliter plate. Serially diluted antibodies or fusion proteins were added to each well and incubated for 1 hour at 4° C. Cells were washed three times by centrifugation at 1500 rpm for 5 minutes, and then stained with secondary antibody (1:200 dilution) for 30 min at 4° C. in the dark. Cells were washed once, re-suspended in 100 μl PBS buffer and then analyzed using Guava Flow Cytometry EasyCyte system.

[10] = target: T6, human B7-H4 expressed on cells; assay: flow cytometry, SK-BR-3 cells
Experimental: as §4

[11] = target: T4, mB7-H4 (soluble mouse B7-H4, construct …); assay: SPR (Biacore)
Experimental: as §2

[12] = target: T3, hB7-H4 (soluble human B7-H4, construct …); assay: SPR (Biacore)
Experimental: as §2

T10 sequence (chain, as listed by the source): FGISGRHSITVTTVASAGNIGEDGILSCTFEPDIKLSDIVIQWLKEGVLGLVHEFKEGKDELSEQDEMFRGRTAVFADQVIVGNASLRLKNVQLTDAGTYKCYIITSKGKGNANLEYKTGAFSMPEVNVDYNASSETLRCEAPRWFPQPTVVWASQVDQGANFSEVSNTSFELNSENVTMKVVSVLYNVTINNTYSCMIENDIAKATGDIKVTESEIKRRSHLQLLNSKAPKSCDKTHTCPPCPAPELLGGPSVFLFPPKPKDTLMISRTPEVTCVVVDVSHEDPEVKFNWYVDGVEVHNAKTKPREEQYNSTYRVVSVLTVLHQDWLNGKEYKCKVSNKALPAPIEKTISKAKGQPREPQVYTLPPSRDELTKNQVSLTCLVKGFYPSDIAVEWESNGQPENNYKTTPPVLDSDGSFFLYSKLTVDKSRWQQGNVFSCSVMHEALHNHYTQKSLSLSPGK
T9 sequence (chain, as listed by the source): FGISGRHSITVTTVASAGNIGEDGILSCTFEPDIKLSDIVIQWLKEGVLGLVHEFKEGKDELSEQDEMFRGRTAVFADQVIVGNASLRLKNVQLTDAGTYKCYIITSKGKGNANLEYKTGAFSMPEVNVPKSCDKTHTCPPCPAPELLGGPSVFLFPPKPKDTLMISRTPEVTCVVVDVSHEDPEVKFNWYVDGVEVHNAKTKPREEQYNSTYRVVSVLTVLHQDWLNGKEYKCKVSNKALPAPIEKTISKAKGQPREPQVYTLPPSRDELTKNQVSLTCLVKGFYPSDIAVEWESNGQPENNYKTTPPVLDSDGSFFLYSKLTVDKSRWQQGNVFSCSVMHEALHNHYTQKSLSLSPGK
T7 sequence (chain, as listed by the source): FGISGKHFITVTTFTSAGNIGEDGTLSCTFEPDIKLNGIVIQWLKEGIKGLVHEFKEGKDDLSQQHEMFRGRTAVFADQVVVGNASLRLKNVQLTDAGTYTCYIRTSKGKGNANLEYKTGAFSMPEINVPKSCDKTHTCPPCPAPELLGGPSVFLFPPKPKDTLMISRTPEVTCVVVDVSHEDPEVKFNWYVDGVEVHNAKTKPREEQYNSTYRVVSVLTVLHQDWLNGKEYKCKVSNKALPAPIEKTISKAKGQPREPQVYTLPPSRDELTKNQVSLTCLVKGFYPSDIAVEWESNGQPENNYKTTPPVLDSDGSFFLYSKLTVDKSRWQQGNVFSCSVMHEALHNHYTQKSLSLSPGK
T8 sequence (chain, as listed by the source): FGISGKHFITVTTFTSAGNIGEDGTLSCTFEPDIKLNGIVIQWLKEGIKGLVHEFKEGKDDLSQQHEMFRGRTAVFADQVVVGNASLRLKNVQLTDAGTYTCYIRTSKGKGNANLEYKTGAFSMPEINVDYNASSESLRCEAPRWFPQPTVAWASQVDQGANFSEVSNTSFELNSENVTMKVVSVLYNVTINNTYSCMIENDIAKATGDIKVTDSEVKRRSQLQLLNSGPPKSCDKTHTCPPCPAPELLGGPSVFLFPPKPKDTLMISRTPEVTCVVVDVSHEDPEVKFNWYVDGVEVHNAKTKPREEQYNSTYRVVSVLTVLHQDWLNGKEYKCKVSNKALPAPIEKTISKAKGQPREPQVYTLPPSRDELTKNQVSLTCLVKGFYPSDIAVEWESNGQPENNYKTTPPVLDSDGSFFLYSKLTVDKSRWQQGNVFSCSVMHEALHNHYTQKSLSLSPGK

Binder	binding result [1]	Kd (mouse B7-H4-his) [nM]	Kd (mouse B7-H4-Fc [2]) [nM]	binding result [3]	EC50 (read off the curve) (human B7-H4-Fc [4]) [nM]	Kd (human B7-H4-Fc [5]) [nM]	Kd (human B7-H4-his) [nM]	EC50 (read off the curve) (mouse B7-H4-Fc [6]) [nM]	binding result (mouse B7-H4-Fc [6])	EC50 [7] [nM]	EC50 [8] [nM]	EC50 [9] [nM]	EC50 [10] [nM]	Kd [11] [nM]	Kd [12] [nM]
B1	no binding (tested: 20 nM)	9.09	14.1	no binding (tested: 20 nM)	~0.1	11.7	10	~0.1	–	–	–	–	–	–	–
B2	no binding (tested: 20 nM)	7.83	13.1	no binding (tested: 20 nM)	–	12.1	5.19	–	–	–	–	–	–	–	–
B3	–	3.4	–	–	–	–	5.3	–	binds	–	–	–	–	–	–
B4	–	6.38	–	–	–	–	6.05	–	binds	–	–	–	–	–	–
B5	–	1.52	0.642	–	–	1.8	0.85	–	–	0.18	0.104	122	126	4.78	5.97
B6	–	–	–	–	–	–	–	–	binds	0.261	0.162	45.3	22.5	8.46	10.6
B7	–	–	–	–	–	–	–	–	–	0.1	0.105	54.3	24	6.08	7.09
B8	–	–	–	–	–	–	–	–	binds	0.115	0.082	45.7	9.2	2.8	15
B9	–	29.2	–	–	–	–	194	–	binds	–	–	–	–	–	–
B10	no binding (tested: 20 nM)	15	11.9	no binding (tested: 20 nM)	~0.1	15	16.6	~0.1	–	–	–	–	–	–	–
B11	no binding (tested: 20 nM)	12.4	10.6	no binding (tested: 20 nM)	–	13.7	7.91	–	–	–	–	–	–	–	–
B12	–	6.17	3.55	–	–	4.26	5.17	–	–	–	–	–	–	–	–
